Reference: patent US20040248807A1
pKd, pKi: −log10 of the molar value.

How the values were obtained:
Human α-thrombin (human) [1] = biological target: Human α-thrombin (human) (UniProt P00734); test: fluorescence polarization, 2 nM fluoresceinated peptide titrated with α-thrombin
Human γ-thrombin (human) = Human γ-thrombin (human) (UniProt P00734); test: fluorescence polarization, fluoresceinated peptide titrated with γ-thrombin
Human α-thrombin (human) [2] = biological target: Human α-thrombin (human) (UniProt P00734); test: fluorescence polarization competition against 2 nM fluoresceinated γ′408-427 phosphorylated peptide, 2 µM α-thrombin

fluoresceinated γ′408-427 peptide, …-Y(PO3)-DSL-Y(PO3)-PEDDL, sequence (P02679 434-453): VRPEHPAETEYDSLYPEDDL

pKd (Human α-thrombin (human) [1])	pKd (Human γ-thrombin (human))	pKi (Human α-thrombin (human) [2])	Substance
6.37	6.21	–	fluoresceinated γ′408-427 peptide, …-Y(PO3)-DSL-Y(PO3)-PEDDL
–	–	6.28	γ′408-427 peptide, doubly phosphorylated, unlabeled, …-Y(PO3)-DSL-Y(PO3)-PEDDL
